PMC3877283, “Development of Novel Radiogallium-Labeled Bone Imaging Agents Using Oligo-Aspartic Acid Peptides as Carriers” (PLoS ONE, 2013)
Where two headings read alike, the source gives them in different places. Peptide text beside a SMILES is read from it. * marks the point of attachment. DOTA = O=C(O)CN1CCN(CC(=O)O)CCN(CC(=O)*)CCN(CC(=O)O)CC1

Assay: Biodistribution experiments in normal mice
Type: in vivo, ddY mice
Details: for F/B ratio (Femur:blood ratio) / tissue uptake dose at 1 h / tissue uptake dose at 3 h / tissue uptake dose at 10 min: male ddY mice, no pretreatment, mean (SD) for four or five animals
Procedure: Experiments with animals were conducted in strict accordance with the Guidelines for the Care and Use of Laboratory Animals of Kanazawa University. The animal experimental protocols used were approved by the Committee on Animal Experimentation of Kanazawa University (Permit Number: AP-132633). Biodistribution experiments were performed after an intravenous administration of each diluted tracer solution (37 kBq/100 µL) to 6-week-old male ddY mice (27–32 g, Japan SLC, Inc., Hamamatsu, Japan). To investigate the effect of an excess amount of bisphosphonate on biodistribution, alendronate (20 mg/kg) was intravenously administered to mice 1 minute before the intravenous injection of ^67Ga-DOTA-(Asp)14 or ^67Ga-DOTA-Bn-SCN-HBP. Four to six mice each were sacrificed by decapitation at 10, 60, and 180 minutes post-injection. Tissues of interest were removed and weighed. Complete left femurs were isolated as representative bone samples, radioactivity was determined using an auto well gamma counter, and counts were corrected for background radiation and physical decay during counting.

For `O=C(O)C[C@H](NC(=O)[C@H](CC(=O)O)NC(=O)[C@H](CC(=O)O)NC(=O)[C@H](CC(=O)O)NC(=O)[C@H](CC(=O)O)NC(=O)[C@H](CC(=O)O)NC(=O)[C@H](CC(=O)O)NC(=O)[C@H](CC(=O)O)NC(=O)[C@H](CC(=O)O)NC(=O)[C@H](CC(=O)O)NC(=O)[C@H](CC(=O)O)NC(=O)[C@H](CC(=O)O)NC(=O)[C@H](CC(=O)O)NC(=O)[C@H](CC(=O)O)NC(=O)CN1CCN(CC(=O)O)CCN(CC(=O)O)CCN(CC(=O)O)CC1)C(=O)O` [67Ga-DOTA-(Asp)14, metal not drawn] ({DOTA}-DDDDDDDDDDDDDD-OH), which “F/B ratio (Femur:blood ratio)” value (10 min after i.v. administration) is on record?
The value was 6.27 (0.66).

And the “F/B ratio (Femur:blood ratio)” value (60 min after i.v. administration)?
Its value is 185.54 (46.89).

What about the “F/B ratio (Femur:blood ratio)” value (180 min after i.v. administration) of the same compound?
The value was 591.08 (221.41).

What about the tissue uptake dose at 1 h (male, ddY, mouse, in vivo, iv, 37 kBq/100 uL, total radioactivity, Blood, 60 min after i.v. administration, read-out: Radioactivity in Blood) of the same compound?
Its tissue uptake dose at 1 h is 0.07 %ID.

And the tissue uptake dose at 3 h (male, ddY, mouse, in vivo, iv, 37 kBq/100 uL, total radioactivity, Blood, 180 min after i.v. administration, read-out: Radioactivity in Blood)?
Its tissue uptake dose at 3 h is 0.03 %ID.

What about the tissue uptake dose at 10 min (male, ddY, mouse, in vivo, iv, 37 kBq/100 uL, total radioactivity, Bone (complete left femur), 10 min after i.v. administration, read-out: Radioactivity in Bone (Femur)) of the same compound?
Its tissue uptake dose at 10 min is 10.1 %ID.

And the tissue uptake dose at 1 h (male, ddY, mouse, in vivo, iv, 37 kBq/100 uL, total radioactivity, Bone (complete left femur), 60 min after i.v. administration, read-out: Radioactivity in Bone (Femur))?
Its tissue uptake dose at 1 h is 12.8 %ID.

What about the tissue uptake dose at 3 h (male, ddY, mouse, in vivo, iv, 37 kBq/100 uL, total radioactivity, Bone (complete left femur), 180 min after i.v. administration, read-out: Radioactivity in Bone (Femur)) of the same compound?
Its tissue uptake dose at 3 h is 13.3 %ID.

What about the tissue uptake dose at 10 min (male, ddY, mouse, in vivo, iv, 37 kBq/100 uL, total radioactivity, Brain, 10 min after i.v. administration, read-out: Radioactivity in Brain) of the same compound?
Its tissue uptake dose at 10 min is 0.05 %ID.

What about the tissue uptake dose at 1 h (male, ddY, mouse, in vivo, iv, 37 kBq/100 uL, total radioactivity, Brain, 60 min after i.v. administration, read-out: Radioactivity in Brain) of the same compound?
Its tissue uptake dose at 1 h is 0.01 %ID.

And the tissue uptake dose at 3 h (male, ddY, mouse, in vivo, iv, 37 kBq/100 uL, total radioactivity, Brain, 180 min after i.v. administration, read-out: Radioactivity in Brain)?
Its tissue uptake dose at 3 h is 0.01 %ID.

What about the tissue uptake dose at 10 min (male, ddY, mouse, in vivo, iv, 37 kBq/100 uL, total radioactivity, Heart, 10 min after i.v. administration, read-out: Radioactivity in Heart) of the same compound?
The tissue uptake dose at 10 min was 0.62 %ID.

And the tissue uptake dose at 1 h (male, ddY, mouse, in vivo, iv, 37 kBq/100 uL, total radioactivity, Heart, 60 min after i.v. administration, read-out: Radioactivity in Heart)?
The tissue uptake dose at 1 h was 0.06 %ID.

What about the tissue uptake dose at 3 h (male, ddY, mouse, in vivo, iv, 37 kBq/100 uL, total radioactivity, Heart, 180 min after i.v. administration, read-out: Radioactivity in Heart) of the same compound?
The tissue uptake dose at 3 h was 0.03 %ID.

What about the tissue uptake dose at 10 min (male, ddY, mouse, in vivo, iv, 37 kBq/100 uL, total radioactivity, Kidney, 10 min after i.v. administration, read-out: Radioactivity in Kidney) of the same compound?
The tissue uptake dose at 10 min was 12.4 %ID.

What about the tissue uptake dose at 1 h (male, ddY, mouse, in vivo, iv, 37 kBq/100 uL, total radioactivity, Kidney, 60 min after i.v. administration, read-out: Radioactivity in Kidney) of the same compound?
The tissue uptake dose at 1 h was 0.99 %ID.

And the tissue uptake dose at 3 h (male, ddY, mouse, in vivo, iv, 37 kBq/100 uL, total radioactivity, Kidney, 180 min after i.v. administration, read-out: Radioactivity in Kidney)?
The tissue uptake dose at 3 h was 0.76 %ID.

And the tissue uptake dose at 10 min (male, ddY, mouse, in vivo, iv, 37 kBq/100 uL, total radioactivity, Large-intestine, 10 min after i.v. administration, read-out: Radioactivity in Large-intestine)?
Its tissue uptake dose at 10 min is 0.3 %ID.

What about the tissue uptake dose at 1 h (male, ddY, mouse, in vivo, iv, 37 kBq/100 uL, total radioactivity, Large-intestine, 60 min after i.v. administration, read-out: Radioactivity in Large-intestine) of the same compound?
The tissue uptake dose at 1 h was 0.04 %ID.

What about the tissue uptake dose at 3 h (male, ddY, mouse, in vivo, iv, 37 kBq/100 uL, total radioactivity, Large-intestine, 180 min after i.v. administration, read-out: Radioactivity in Large-intestine) of the same compound?
Its tissue uptake dose at 3 h is 0.15 %ID.

What about the tissue uptake dose at 10 min (male, ddY, mouse, in vivo, iv, 37 kBq/100 uL, total radioactivity, Liver, 10 min after i.v. administration, read-out: Radioactivity in Liver) of the same compound?
The tissue uptake dose at 10 min was 0.39 %ID.

What about the tissue uptake dose at 1 h (male, ddY, mouse, in vivo, iv, 37 kBq/100 uL, total radioactivity, Liver, 60 min after i.v. administration, read-out: Radioactivity in Liver) of the same compound?
Its tissue uptake dose at 1 h is 0.05 %ID.

What about the tissue uptake dose at 3 h (male, ddY, mouse, in vivo, iv, 37 kBq/100 uL, total radioactivity, Liver, 180 min after i.v. administration, read-out: Radioactivity in Liver) of the same compound?
Its tissue uptake dose at 3 h is 0.05 %ID.

And the tissue uptake dose at 10 min (male, ddY, mouse, in vivo, iv, 37 kBq/100 uL, total radioactivity, Lung, 10 min after i.v. administration, read-out: Radioactivity in Lung)?
Its tissue uptake dose at 10 min is 1.19 %ID.

And the tissue uptake dose at 1 h (male, ddY, mouse, in vivo, iv, 37 kBq/100 uL, total radioactivity, Lung, 60 min after i.v. administration, read-out: Radioactivity in Lung)?
The tissue uptake dose at 1 h was 0.08 %ID.

And the tissue uptake dose at 3 h (male, ddY, mouse, in vivo, iv, 37 kBq/100 uL, total radioactivity, Lung, 180 min after i.v. administration, read-out: Radioactivity in Lung)?
The tissue uptake dose at 3 h was 0.03 %ID.

And the tissue uptake dose at 10 min (male, ddY, mouse, in vivo, iv, 37 kBq/100 uL, total radioactivity, Muscle, 10 min after i.v. administration, read-out: Radioactivity in Muscle)?
Its tissue uptake dose at 10 min is 0.57 %ID.

What about the tissue uptake dose at 1 h (male, ddY, mouse, in vivo, iv, 37 kBq/100 uL, total radioactivity, Muscle, 60 min after i.v. administration, read-out: Radioactivity in Muscle) of the same compound?
Its tissue uptake dose at 1 h is 0.08 %ID.

What about the tissue uptake dose at 3 h (male, ddY, mouse, in vivo, iv, 37 kBq/100 uL, total radioactivity, Muscle, 180 min after i.v. administration, read-out: Radioactivity in Muscle) of the same compound?
The tissue uptake dose at 3 h was 0.05 %ID.

What about the tissue uptake dose at 10 min (male, ddY, mouse, in vivo, iv, 37 kBq/100 uL, total radioactivity, Pancreas, 10 min after i.v. administration, read-out: Radioactivity in Pancreas) of the same compound?
The tissue uptake dose at 10 min was 0.5 %ID.

And the tissue uptake dose at 1 h (male, ddY, mouse, in vivo, iv, 37 kBq/100 uL, total radioactivity, Pancreas, 60 min after i.v. administration, read-out: Radioactivity in Pancreas)?
Its tissue uptake dose at 1 h is 0.07 %ID.

What about the tissue uptake dose at 3 h (male, ddY, mouse, in vivo, iv, 37 kBq/100 uL, total radioactivity, Pancreas, 180 min after i.v. administration, read-out: Radioactivity in Pancreas) of the same compound?
The tissue uptake dose at 3 h was 0.03 %ID.

And the tissue uptake dose at 10 min (male, ddY, mouse, in vivo, iv, 37 kBq/100 uL, total radioactivity, Small-intestine, 10 min after i.v. administration, read-out: Radioactivity in Small-intestine)?
The tissue uptake dose at 10 min was 0.38 %ID.

What about the tissue uptake dose at 1 h (male, ddY, mouse, in vivo, iv, 37 kBq/100 uL, total radioactivity, Small-intestine, 60 min after i.v. administration, read-out: Radioactivity in Small-intestine) of the same compound?
The tissue uptake dose at 1 h was 0.08 %ID.

What about the tissue uptake dose at 3 h (male, ddY, mouse, in vivo, iv, 37 kBq/100 uL, total radioactivity, Small-intestine, 180 min after i.v. administration, read-out: Radioactivity in Small-intestine) of the same compound?
Its tissue uptake dose at 3 h is 0.05 %ID.

What about the tissue uptake dose at 10 min (male, ddY, mouse, in vivo, iv, 37 kBq/100 uL, total radioactivity, Spleen, 10 min after i.v. administration, read-out: Radioactivity in Spleen) of the same compound?
Its tissue uptake dose at 10 min is 0.42 %ID.

And the tissue uptake dose at 1 h (male, ddY, mouse, in vivo, iv, 37 kBq/100 uL, total radioactivity, Spleen, 60 min after i.v. administration, read-out: Radioactivity in Spleen)?
Its tissue uptake dose at 1 h is 0.07 %ID.

What about the tissue uptake dose at 3 h (male, ddY, mouse, in vivo, iv, 37 kBq/100 uL, total radioactivity, Spleen, 180 min after i.v. administration, read-out: Radioactivity in Spleen) of the same compound?
Its tissue uptake dose at 3 h is 0.03 %ID.

And the tissue uptake dose at 10 min (male, ddY, mouse, in vivo, iv, 37 kBq/100 uL, total radioactivity, Stomach (footnote b), 10 min after i.v. administration, read-out: Radioactivity in Stomach)?
Its tissue uptake dose at 10 min is 0.24 %ID.

What about the tissue uptake dose at 1 h (male, ddY, mouse, in vivo, iv, 37 kBq/100 uL, total radioactivity, Stomach (footnote b), 60 min after i.v. administration, read-out: Radioactivity in Stomach) of the same compound?
Its tissue uptake dose at 1 h is 0.1 %ID.

What about the tissue uptake dose at 3 h (male, ddY, mouse, in vivo, iv, 37 kBq/100 uL, total radioactivity, Stomach (footnote b), 180 min after i.v. administration, read-out: Radioactivity in Stomach) of the same compound?
The tissue uptake dose at 3 h was 0.02 %ID.

What about the tissue uptake at 1 h (male, ddY, mouse, in vivo, iv, 37 kBq/100 uL, total radioactivity, 60 min after injection, mice, read-out: accumulation in bone) of the same compound?
The tissue uptake at 1 h was 12.8 ± 1.7 %ID/g.

And the tissue uptake dose at 10 min (mouse, in vivo, iv, 37 kBq/100 uL, total radioactivity, Blood, 10 min after i.v. administration (37 kBq/100 µL), gamma counter, read-out: Radioactivity in Blood)?
Its tissue uptake dose at 10 min is 1.61 %ID.

And the “accumulation of radioactivity in the femur (in words)” value (normal mice, i.v.)?
Its value is “higher accumulation”.
